Experimental data as given in IntAct's records for PubMed 31515488.

B1: 1-phosphatidylinositol 4,5-bisphosphate phosphodiesterase delta-4 (Homo sapiens), Q9BRC7 (parent)
chain: MASLLQDQLTTDQDLLLMQEGMPMRKVRSKSWKKLRYFRLQNDGMTVWHARQARGSAKPSFSISDVETIRNGHDSELLRSLAEELPLEQGFTIVFHGRRSNLDLMANSVEEAQIWMRGLQLLVDLVTSMDHQERLDQWLSDWFQRGDKNQDGKMSFQEVQRLLHLMNVEMDQEYAFSLFQAADTSQSGTLEGEEFVQFYKALTKRAEVQELFESFSADGQKLTLLEFLDFLQEEQKERDCTSELALELIDRYEPSDSGKLRHVLSMDGFLSYLCSKDGDIFNPACLPIYQDMTQPLNHYFICSSHNTYLVGDQLCGQSSVEGYIRALKRGCRCVEVDVWDGPSGEPVVYHGHTLTSRILFKDVVATVAQYAFQTSDYPVILSLETHCSWEQQQTMARHLTEILGEQLLSTTLDGVLPTQLPSPEELRRKILVKGKKLTLEEDLEYEEEEAEPELEESELALESQFETEPEPQEQNLQNKDKKKKSKPILCPALSSLVIYLKSVSFRSFTHSKEHYHFYEISSFSETKAKRLIKEAGNEFVQHNTWQLSRVYPSGLRTDSSNYNPQELWNAGCQMVAMNMQTAGLEMDICDGHFRQNGGCGYVLKPDFLRDIQSSFHPEKPISPFKAQTLLIQVISGQQLPKVDKTKEGSIVDPLVKVQIFGVRLDTARQETNYVENNGFNPYWGQTLCFRVLVPELAMLRFVVMDYDWKSRNDFIGQYTLPWTCMQQGYRHIHLLSKDGISLRPASIFVYICIQEGLEGDES
partner: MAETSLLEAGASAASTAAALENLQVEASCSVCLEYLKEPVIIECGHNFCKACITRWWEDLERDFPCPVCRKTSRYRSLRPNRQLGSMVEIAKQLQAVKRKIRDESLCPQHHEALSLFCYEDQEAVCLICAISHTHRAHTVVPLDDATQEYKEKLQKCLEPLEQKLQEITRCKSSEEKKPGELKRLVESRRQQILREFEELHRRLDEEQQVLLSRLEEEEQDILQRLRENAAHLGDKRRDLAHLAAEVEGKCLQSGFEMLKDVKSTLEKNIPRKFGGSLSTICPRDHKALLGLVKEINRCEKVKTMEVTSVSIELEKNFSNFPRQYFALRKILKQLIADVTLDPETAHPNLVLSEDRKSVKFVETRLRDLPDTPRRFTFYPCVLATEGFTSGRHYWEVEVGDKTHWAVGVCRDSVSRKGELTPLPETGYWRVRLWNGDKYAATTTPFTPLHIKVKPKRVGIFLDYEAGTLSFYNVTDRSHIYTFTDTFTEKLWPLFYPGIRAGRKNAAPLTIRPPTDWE
B2: AKT-interacting protein (Homo sapiens), Q9H8T0 (parent)
chain: MNPFWSMSTSSVRKRSEGEEKTLTGDVKTSPPRTAPKKQLPSIPKNALPITKPTSPAPAAQSTNGTHASYGPFYLEYSLLAEFTLVVKQKLPGVYVQPSYRSALMWFGVIFIRHGLYQDGVFKFTVYIPDNYPDGDCPRLVFDIPVFHPLVDPTSGELDVKRAFAKWRRNHNHIWQVLMYARRVFYKIDTASPLNPEAAVLYEKDIQLFKSKVVDSVKVCTARLFDQPKIEDPYAISFSPWNPSVHDEAREKMLTQKKPEEQHNKSVHVAGLSWVKPGSVQPFSKEEKTVAT
partner: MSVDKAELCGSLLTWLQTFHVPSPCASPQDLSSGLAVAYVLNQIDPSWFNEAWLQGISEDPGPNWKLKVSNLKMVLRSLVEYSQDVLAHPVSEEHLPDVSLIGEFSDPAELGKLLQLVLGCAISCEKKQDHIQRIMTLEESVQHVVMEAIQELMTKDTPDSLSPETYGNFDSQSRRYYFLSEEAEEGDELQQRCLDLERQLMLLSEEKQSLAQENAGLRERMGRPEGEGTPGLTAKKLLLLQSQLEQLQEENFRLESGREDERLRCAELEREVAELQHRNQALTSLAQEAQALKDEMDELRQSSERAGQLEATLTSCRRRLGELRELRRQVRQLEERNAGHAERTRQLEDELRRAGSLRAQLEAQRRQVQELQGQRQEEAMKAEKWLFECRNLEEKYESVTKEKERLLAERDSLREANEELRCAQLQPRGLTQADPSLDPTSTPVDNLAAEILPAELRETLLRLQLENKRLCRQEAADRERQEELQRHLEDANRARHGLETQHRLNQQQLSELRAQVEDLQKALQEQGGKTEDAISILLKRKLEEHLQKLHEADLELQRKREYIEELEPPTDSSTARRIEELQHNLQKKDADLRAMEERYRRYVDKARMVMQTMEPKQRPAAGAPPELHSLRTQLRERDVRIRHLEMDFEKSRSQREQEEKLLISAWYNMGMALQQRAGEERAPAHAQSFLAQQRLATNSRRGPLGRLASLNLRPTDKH
B3: Protein BANP (Homo sapiens), Q8N9N5 (parent)
chain: MMSEHDLADVVQIAVEDLSPDHPVVLENHVVTDEDEPALKRQRLEINCQDPSIKTICLRLDSIEAKLQALEATCKSLEEKLDLVTNKQHSPIQVPMVAGSPLGATQTCNKVRCVVPQTTVILNNDRQNAIVAKMEDPLSNRAPDSLENVISNAVPGRRQNTIVVKVPGQEDSHHEDGESGSEASDSVSSCGQAGSQSIGSNVTLITLNSEEDYPNGTWLGDENNPEMRVRCAIIPSDMLHISTNCRTAEKMALTLLDYLFHREVQAVSNLSGQGKHGKKQLDPLTIYGIRCHLFYKFGITESDWYRIKQSIDSKCRTAWRRKQRGQSLAVKSFSRRTPNSSSYCPSEPMMSTPPPASELPQPQPQPQALHYALANAQQVQIHQIGEDGQVQVGHLHIAQVPQGEQVQITQDSEGNLQIHHVGQDGQLLEATRIPCLLAPSVFKASSGQVLQGAQLIAVASSDPAAAGVDGSPLQGSDIQVQYVQLAPVSDHTAGAQTAEALQPTLQPEMQLEHGAIQIQ
B4: Cyclic AMP-dependent transcription factor ATF-2 (Homo sapiens), P15336 (parent)
chain: MKFKLHVNSARQYKDLWNMSDDKPFLCTAPGCGQRFTNEDHLAVHKHKHEMTLKFGPARNDSVIVADQTPTPTRFLKNCEEVGLFNELASPFENEFKKASEDDIKKMPLDLSPLATPIIRSKIEEPSVVETTHQDSPLPHPESTTSDEKEVPLAQTAQPTSAIVRPASLQVPNVLLTSSDSSVIIQQAVPSPTSSTVITQAPSSNRPIVPVPGPFPLLLHLPNGQTMPVAIPASITSSNVHVPAAVPLVRPVTMVPSVPGIPGPSSPQPVQSEAKMRLKAALTQQHPPVTNGDTVKGHGSGLVRTQSEESRPQSLQQPATSTTETPASPAHTTPQTQSTSGRRRRAANEDPDEKRRKFLERNRAAASRCRQKRKVWVQSLEKKAEDLSSLNGQLQSEVTLLRNEVAQLKQLLLAHKDCPVTAMQKKSGYHTADKDDSSEDISVPSSPHTEAIQHSSVSTSNGVSSTSKAEAVATSVLTQMADQSTEPALSQIVMAPSSQSQPSGS
B5: Rab-like protein 2A (Homo sapiens), Q9UBK7 (parent)
chain: MAEDKTKPSELDQGKYDADDNVKIICLGDSAVGKSKLMERFLMDGFQPQQLSTYALTLYKHTATVDGKTILVDFWDTAGQERFQSMHASYYHKAHACIMVFDIQRKVTYRNLSTWYTELREFRPEIPCIVVANKIDDINVTQKSFNFAKKFSLPLYFVSAADGTNVVKLFNDAIRLAVSYKQNSQDFMDEIFQELENFSLEQEEEDVPDQEQSSSIETPSEEVASPHS
partner: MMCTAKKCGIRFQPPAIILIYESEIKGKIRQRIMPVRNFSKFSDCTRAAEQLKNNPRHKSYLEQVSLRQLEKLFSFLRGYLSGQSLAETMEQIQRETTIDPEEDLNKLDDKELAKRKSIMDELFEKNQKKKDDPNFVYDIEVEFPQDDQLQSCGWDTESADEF

Variants of: B1
Conditions: with tri39_human TRIM39, Q9HCM9

effect of a mutation on the interaction | Variant
with no effect | N475K

Variants of: B2
Conditions: with hook2_human HOOK2, Q96ED9

effect of a mutation on the interaction | Variant
with no effect | R33Q

Variants of: B3
Conditions: with zn471_human ZNF471, Q9BX82
zn471_human ZNF471, Q9BX82, sequence (Q9BX82 whole entry): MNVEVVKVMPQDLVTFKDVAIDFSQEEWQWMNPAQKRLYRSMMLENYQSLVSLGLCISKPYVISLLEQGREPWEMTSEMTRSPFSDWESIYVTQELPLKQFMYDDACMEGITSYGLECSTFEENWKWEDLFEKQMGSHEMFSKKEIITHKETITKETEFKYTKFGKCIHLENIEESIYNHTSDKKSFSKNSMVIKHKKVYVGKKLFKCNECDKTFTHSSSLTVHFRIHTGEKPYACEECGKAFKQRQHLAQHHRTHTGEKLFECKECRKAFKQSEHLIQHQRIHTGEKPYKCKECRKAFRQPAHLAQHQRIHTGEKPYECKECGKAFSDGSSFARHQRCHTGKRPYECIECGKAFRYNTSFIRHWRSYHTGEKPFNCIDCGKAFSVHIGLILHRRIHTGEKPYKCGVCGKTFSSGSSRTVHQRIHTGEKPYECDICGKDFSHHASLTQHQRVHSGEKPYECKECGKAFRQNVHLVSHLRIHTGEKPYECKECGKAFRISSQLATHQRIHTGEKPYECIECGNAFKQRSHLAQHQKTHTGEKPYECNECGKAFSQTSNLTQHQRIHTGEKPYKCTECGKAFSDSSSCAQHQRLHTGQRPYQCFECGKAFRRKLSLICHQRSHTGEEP

effect of a mutation on the interaction | Variant
with no effect | P348S

Variants of: B4
Conditions: with jun_human JUN

effect of a mutation on the interaction | Variant
with no effect | S456L

Variants of: B5
Conditions: with cep19_human CEP19, Q96LK0

effect of a mutation on the interaction | Variant
with no effect | T53M
with no effect | R82Q
